Assay results taken from PMC9977783, “Ligand-specific changes in conformational flexibility mediate long-range allostery in the lac repressor” (Nature Communications, 2021).

Columns and labels:
[1] = biological target: LacI (Escherichia coli) (UniProt P03023); conditions: cited from earlier work
[2] = biological target: LacI dimeric (lac repressor, tetramerization domain removed) (Escherichia coli, UniProt P03023 1-331); assay: BLI; no IPTG; BLI: PBS with 0.2% BSA, 0.05% Tween-20, pH 8.0, room temperature, LacI 0-40 nM, global 1:1 kinetic fit; HDX/MS: 50 mM MOPS, 200 mM NaCl, 0.5 mM TCEP, pH 7.0, equilibrated at 4 C; conditions: protein: recombinant; 6xHis removed with TEV protease; chain copies: 2; label: 5'-biotin on forward strand; blunt
[3] = biological target: the molecule itself; assay: SEC; purified LacI(1-331) after tag removal, buffer and concentration not given

LacI, sequence (P03023 whole entry): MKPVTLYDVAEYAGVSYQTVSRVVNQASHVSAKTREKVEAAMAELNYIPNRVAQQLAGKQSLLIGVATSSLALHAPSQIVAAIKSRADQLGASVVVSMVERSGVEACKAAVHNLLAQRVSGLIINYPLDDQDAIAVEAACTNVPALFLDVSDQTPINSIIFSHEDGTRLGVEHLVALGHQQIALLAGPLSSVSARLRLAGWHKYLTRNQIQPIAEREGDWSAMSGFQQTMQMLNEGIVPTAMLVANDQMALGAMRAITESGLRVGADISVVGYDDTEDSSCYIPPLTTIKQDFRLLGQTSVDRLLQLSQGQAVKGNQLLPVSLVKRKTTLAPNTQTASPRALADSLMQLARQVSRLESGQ

| Molecule | Kd [2] | other results |
| --- | --- | --- |
| LacI (from UniProt P03023) | – | Kd [1]: 80 nM |
| Olac (LacO1 natural operator, BLI) (dsDNA) DNA 1: AGTAGTGGAATTGTGAGCGGATAACAATTGACATTGTGAGCGGATAACAAGATACTGAGCACATCAGC DNA 2: GCTGATGTGCTCAGTATCTTGTTATCCGCTCACAATGTCAATTGTTATCCGCTCACAATTCCACTACT | 9.5 nM | – |
| dimeric LacI (lac repressor, residues 1-331, without the tetramerization domain) (domain or fragment, E. coli, UniProt P03023 1-331, looked up, E. coli lac repressor (LacI), residues 1-331, tetramerization domain truncated; vector pET9a-6×His-LacI(1-331); His tag removed with TEV protease; also called LacI(1-331); apo-LacI; source: E. coli BL21(AI) ΔlacI-ZYA, purified (Ni-NTA, TEV cleavage, second Ni-NTA flowthrough)) MKPVTLYDVAEYAGVSYQTVSRVVNQASHVSAKTREKVEAAMAELNYIPNRVAQQLAGKQSLLIGVATSSLALHAPSQIVAAIKSRADQLGASVVVSMVERSGVEACKAAVHNLLAQRVSGLIINYPLDDQDAIAVEAACTNVPALFLDVSDQTPINSIIFSHEDGTRLGVEHLVALGHQQIALLAGPLSSVSARLRLAGWHKYLTRNQIQPIAEREGDWSAMSGFQQTMQMLNEGIVPTAMLVANDQMALGAMRAITESGLRVGADISVVGYDDTEDSSCYIPPLTTIKQDFRLLGQTSVDRLLQLSQGQAVKGNQLLPVSLVKRKTTLA | – | binding result [3]: binds |
| Osyn (perfectly symmetric synthetic operator) (dsDNA) DNA 1: AGTAGTCTAGAATTGTGAGCGCTCACAATTCTAGAGTAGT DNA 2: ACTACTCTAGAATTGTGAGCGCTCACAATTCTAGACTACT | 1.1 nM | – |
